Positions count from the first letter of the chain named.
Key:
CasX variant 119 = target: T1, CasX variant 119 (synthetic construct); test: cleavage_in_vitro
T1 chain: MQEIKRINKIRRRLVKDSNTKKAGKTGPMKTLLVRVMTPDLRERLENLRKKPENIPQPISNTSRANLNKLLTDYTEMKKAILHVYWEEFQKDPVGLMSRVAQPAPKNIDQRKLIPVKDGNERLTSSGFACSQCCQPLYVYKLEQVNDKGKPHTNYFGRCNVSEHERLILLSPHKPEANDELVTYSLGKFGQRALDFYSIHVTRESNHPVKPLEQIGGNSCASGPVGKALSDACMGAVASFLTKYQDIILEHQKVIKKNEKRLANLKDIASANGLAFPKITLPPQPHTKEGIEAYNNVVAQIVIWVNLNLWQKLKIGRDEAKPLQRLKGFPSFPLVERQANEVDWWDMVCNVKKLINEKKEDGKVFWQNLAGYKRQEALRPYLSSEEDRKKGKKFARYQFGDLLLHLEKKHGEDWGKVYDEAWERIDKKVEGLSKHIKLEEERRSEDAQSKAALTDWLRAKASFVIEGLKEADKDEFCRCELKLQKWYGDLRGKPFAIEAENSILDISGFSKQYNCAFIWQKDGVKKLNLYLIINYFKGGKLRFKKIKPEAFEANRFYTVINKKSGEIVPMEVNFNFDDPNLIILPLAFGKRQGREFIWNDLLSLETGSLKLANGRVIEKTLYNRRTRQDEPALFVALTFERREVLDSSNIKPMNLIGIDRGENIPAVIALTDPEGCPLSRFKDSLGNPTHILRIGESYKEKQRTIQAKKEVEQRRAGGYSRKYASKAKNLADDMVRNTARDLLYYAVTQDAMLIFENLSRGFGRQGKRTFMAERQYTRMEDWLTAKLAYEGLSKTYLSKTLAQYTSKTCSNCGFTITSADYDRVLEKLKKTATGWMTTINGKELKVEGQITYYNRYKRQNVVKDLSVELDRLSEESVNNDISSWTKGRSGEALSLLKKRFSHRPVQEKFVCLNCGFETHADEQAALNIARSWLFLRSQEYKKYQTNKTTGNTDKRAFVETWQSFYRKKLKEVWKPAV

CasX variant 438 = target: T2, CasX variant 438 (synthetic construct); test: cleavage_in_vitro
T2 chain: T1 chain with F399L, L404K, I658V, Y856R

B1: gRNA scaffold 174 + spacer 7.37 ; 7.37 TTC PAM target (ssRNA ; dsDNA)
RNA: ACUGGCGCUUUUAUCUGAUUACUUUGAGAGCCAUCACCAGCGACUAUGUCGUAGUGGGUAAAGCUCCCUCUUCGGAGGGAGCAUCAAAGGGGCCGAGAUGUCUCGCUCC
DNA 1: TGAAGCTGACAGCATTCGGGCCGAGATGTCTCGCTCCGTGGCCTTAGCTGTGCTCGCGCT
DNA 2: AGCGCGAGCACAGCTAAGGCCACGGAGCGAGACATCTCGGCCCGAATGCTGTCAGCTTCA
- activity (CasX variant 119): 8.33 min⁻¹
- activity (CasX variant 438): 4.94 min⁻¹

Reference: US20240360474 (Scribe Therapeutics Inc., published 2024)
